The values that follow come from patent US20260265379A1 (IMCHECK THERAPEUTICS, published 2026).

For one assay, the target named is T1, recombinant human BTN3A1 (human, UniProt O00481 30-254).
T1 construct: Soluble form of the antigen used in SPR; also called rhBTN3A1; recombinant BTN3A1 protein
Briefly: SPR. For orientation: In SPR one partner is held on a chip, and binding of the other changes the refractive index at the surface.

The target in the next assay is T2, recombinant human PD-L1 (human, UniProt Q9NZQ7 19-239, limits assumed).
T2 construct: Soluble antigen in SPR; also called rhPD-L1
Kind of assay: SPR.

In assay [1] the target is T3, PD-L1 at the surface of transduced cells (UniProt Q9NZQ7 19-290, limits assumed).
T3 construct: whole, on cells; CHO-PD-L1 cells in flow cytometry, Raji-PD-L1 cells in the reporter assay; also called CHO-PD-L1; Raji-PD-L1
Kind of assay: flow cytometry, CHO-PD-L1 cells. A general note: Flow cytometry measures light scatter and fluorescence of single cells or particles in a stream.

The target in assay [2] is T4, BTN3A1 at the surface of HEK-BTN3A1 cells (human, UniProt O00481 30-513).
T4 construct: HEK 293T BTN2A/BTN3A KO cells transduced with a BTN3A1 expressing vector
Briefly: flow cytometry, HEK-BTN3A1 cells.

A word on the Kd: it is the equilibrium constant for the complex coming apart.

T4 sequence (O00481 30-513 limits assumed): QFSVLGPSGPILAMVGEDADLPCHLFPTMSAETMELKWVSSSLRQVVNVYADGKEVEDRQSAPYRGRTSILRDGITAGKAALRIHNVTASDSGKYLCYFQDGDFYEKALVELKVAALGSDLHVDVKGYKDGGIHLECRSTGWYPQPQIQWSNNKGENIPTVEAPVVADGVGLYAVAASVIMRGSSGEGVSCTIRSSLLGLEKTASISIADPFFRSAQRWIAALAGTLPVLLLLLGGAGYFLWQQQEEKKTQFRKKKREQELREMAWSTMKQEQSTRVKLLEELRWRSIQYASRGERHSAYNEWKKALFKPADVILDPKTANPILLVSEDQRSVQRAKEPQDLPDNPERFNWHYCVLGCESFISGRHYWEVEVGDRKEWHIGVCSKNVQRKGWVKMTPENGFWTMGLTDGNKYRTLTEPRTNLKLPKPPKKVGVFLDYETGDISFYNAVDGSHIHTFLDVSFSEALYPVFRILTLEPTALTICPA
T2 sequence (Q9NZQ7 19-239 limits assumed): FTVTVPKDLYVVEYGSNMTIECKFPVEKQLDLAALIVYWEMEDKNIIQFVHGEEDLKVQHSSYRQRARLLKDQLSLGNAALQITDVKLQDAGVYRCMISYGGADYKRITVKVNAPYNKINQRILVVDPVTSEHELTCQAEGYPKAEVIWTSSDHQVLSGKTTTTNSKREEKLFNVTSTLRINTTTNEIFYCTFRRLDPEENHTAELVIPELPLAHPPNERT
T1 sequence (O00481 30-254 limits assumed): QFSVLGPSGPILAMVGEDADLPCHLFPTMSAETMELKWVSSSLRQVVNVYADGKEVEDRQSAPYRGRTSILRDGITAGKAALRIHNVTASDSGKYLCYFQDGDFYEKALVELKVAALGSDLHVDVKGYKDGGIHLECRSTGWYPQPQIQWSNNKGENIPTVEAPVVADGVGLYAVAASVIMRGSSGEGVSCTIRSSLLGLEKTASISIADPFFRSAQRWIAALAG
T3 sequence (Q9NZQ7 19-290 limits assumed): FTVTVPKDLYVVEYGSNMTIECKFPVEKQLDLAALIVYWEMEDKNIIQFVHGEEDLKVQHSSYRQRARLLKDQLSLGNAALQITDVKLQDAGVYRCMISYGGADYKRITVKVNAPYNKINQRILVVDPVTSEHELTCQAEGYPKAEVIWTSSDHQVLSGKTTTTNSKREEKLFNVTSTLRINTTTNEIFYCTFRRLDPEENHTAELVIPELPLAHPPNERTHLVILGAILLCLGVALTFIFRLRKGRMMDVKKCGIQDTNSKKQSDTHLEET

B1: bsAb020 (bispecific antibody)
heavy: DIQMTQSPSSLSASVGDRVTITCHASQNINVWLSWYQQKPGKAPKLLIYKASNLHTGVPSRFTGSGSGTDFTFTISSLQPEDIATYYCQQGQTYPYTFGQGTKLEIKGGGGSGGGGSGGGGSGGGGSQVQLVQSGAEVKKPGASVKLSCKASGYIFTRYYMYWVKQRPGQGLEWIGEINPNNGGTKFNEKFKNRATLTVDKSISTAYMELSRLRSDDTAVYYCSREDDYDGTPFAMDYWGQGTLVTVSSGGGGSGGGGSGGGGSGGGGSEVQLVESGGGLVQPGGSLRLSCAASGFTFSRYWMSWVRQAPGKGLEWVANIKQDGSEKYYVDSVKGRFTISRDNAKNSLYLQMNSLRAEDTAVYYCAREGGWFGELAFDYWGQGTLVTVSSASTKGPSVFPLAPSSKSTSGGTAALGCLVKDYFPEPVTVSWNSGALTSGVHTFPAVLQSSGLYSLSSVVTVPSSSLGTQTYICNVNHKPSNTKVDKRVEPKSCDKTHTCPPCPAPEFEGGPSVFLFPPKPKDTLMISRTPEVTCVVVDVSHEDPEVKFNWYVDGVEVHNAKTKPREEQYNSTYRVVSVLTVLHQDWLNGKEYKCKVSNKALPASIEKTISKAKGQPREPQVYTLPPSREEMTKNQVSLTCLVKGFYPSDIAVEWESNGQPENNYKTTPPVLDSDGSFFLYSKLTVDKSRWQQGNVFSCSVMHEALHNHYTQKSLSLSPG
light: EIVLTQSPGTLSLSPGERATLSCRASQRVSSSYLAWYQQKPGQAPRLLIYDASSRATGIPDRFSGSGSGTDFTLTISRLEPEDFAVYYCQQYGSLPWTFGQGTKVEIKRTVAAPSVFIFPPSDEQLKSGTASVVCLLNNFYPREAKVQWKVDNALQSGNSQESVTEQDSKDSTYSLSSTLTLSKADYEKHKVYACEVTHQGLSSPVTKSFNRGEC
notes: IgG anti-PD-L1, scFv anti-BTN3A
Consider B1, for which the Kd amounted to 0.114 nM in the assay with recombinant human BTN3A1 and 0.073 nM with recombinant human PD-L1. Besides, the “MFI at 10 nM” value in assay [1] is 746000 MFI; in assay [2], 997000 MFI. Besides, the “MFI at 100 nM” value in assay [1] amounted to 784000 MFI; in assay [2] it was 1.5e+06 MFI.

B2: bsAb036 (bispecific antibody)
heavy (part 1 of 2): EVQLVESGGGLVQPGGSLRLSCAASGFTFSRYWMSWVRQAPGKGLEWVANIKQDGSEKYYVDSVKGRFTISRDNAKNSLYLQMNSLRAEDTAVYYCAREGGWFGELAFDYWGQGTLVTVSS
heavy (part 2 of 2): GGGGSGGGGSGGGGSGGGGSQVQLVQSGAEVKKPGASVKLSCKASGYIFTRYYMYWVKQRPGQGLEWIGEINPNNGGTKFNEKFKNRATLTVDKSISTAYMELSRLRSDDTAVYYCSREDDYDGTPFAMDYWGQGTLVTVSSGGGGSGGGGSGGGGSGGGGSDIQMTQSPSSLSASVGDRVTITCHASQNINVWLSWYQQKPGKAPKLLIYKASNLHTGVPSRFTGSGSGTDFTFTISSLQPEDIATYYCQQGQTYPYTFGQGTKLEIK
heavy: GGGGSGGGGSGGGGSGGGGSQVQLVQSGAEVKKPGASVKLSCKASGYIFTRYYMYWVKQRPGQGLEWIGEINPNNGGTKFNEKFKNRATLTVDKSISTAYMELSRLRSDDTAVYYCSREDDYDGTPFAMDYWGQGTLVTVSSGGGGSGGGGSGGGGSGGGGSDIQMTQSPSSLSASVGDRVTITCHASQNINVWLSWYQQKPGKAPKLLIYKASNLHTGVPSRFTGSGSGTDFTFTISSLQPEDIATYYCQQGQTYPYTFGQGTKLEIK
light: EIVLTQSPGTLSLSPGERATLSCRASQRVSSSYLAWYQQKPGQAPRLLIYDASSRATGIPDRFSGSGSGTDFTLTISRLEPEDFAVYYCQQYGSLPWTFGQGTKVEIKRTVAAPSVFIFPPSDEQLKSGTASVVCLLNNFYPREAKVQWKVDNALQSGNSQESVTEQDSKDSTYSLSSTLTLSKADYEKHKVYACEVTHQGLSSPVTKSFNRGEC
notes: one Fab arm anti-PD-L1, two scFv anti-BTN3A; not shown: IgG1 CH1-hinge-CH2-CH3; CH2-CH3 (Fc)
Consider B2, for which the Kd with recombinant human BTN3A1 is 0.457 nM; in the assay with recombinant human PD-L1, 0.055 nM. The “MFI at 10 nM” value in assay [1] was 1.03e+06 MFI; in assay [2], 682000 MFI. The entries for the “MFI at 100 nM” value in assay [1] and in assay [2] were 1.24e+06 MFI and 1.22e+06 MFI, respectively.

B3: bsAb041 (bispecific antibody)
heavy (part 1 of 2): EVQLVESGGGLVQPGGSLRLSCAASGFTFSRYWMSWVRQAPGKGLEWVANIKQDGSEKYYVDSVKGRFTISRDNAKNSLYLQMNSLRAEDTAVYYCAREGGWFGELAFDYWGQGTLVTVSS
heavy (part 2 of 2): GGGGSGGGGSGGGGSGGGGSDIQMTQSPSSLSASVGDRVTITCHASQNINVWLSWYQQKPGKAPKLLIYKASNLHTGVPSRFTGSGSGTDFTFTISSLQPEDIATYYCQQGQTYPYTFGQGTKLEIKGGGGSGGGGSGGGGSGGGGSQVQLVQSGAEVKKPGASVKLSCKASGYIFTRYYMYWVKQRPGQGLEWIGEINPNNGGTKFNEKFKNRATLTVDKSISTAYMELSRLRSDDTAVYYCSREDDYDGTPFAMDYWGQGTLVTVSS
heavy: GGGGSGGGGSGGGGSGGGGSDIQMTQSPSSLSASVGDRVTITCHASQNINVWLSWYQQKPGKAPKLLIYKASNLHTGVPSRFTGSGSGTDFTFTISSLQPEDIATYYCQQGQTYPYTFGQGTKLEIKGGGGSGGGGSGGGGSGGGGSQVQLVQSGAEVKKPGASVKLSCKASGYIFTRYYMYWVKQRPGQGLEWIGEINPNNGGTKFNEKFKNRATLTVDKSISTAYMELSRLRSDDTAVYYCSREDDYDGTPFAMDYWGQGTLVTVSS
light: EIVLTQSPGTLSLSPGERATLSCRASQRVSSSYLAWYQQKPGQAPRLLIYDASSRATGIPDRFSGSGSGTDFTLTISRLEPEDFAVYYCQQYGSLPWTFGQGTKVEIKRTVAAPSVFIFPPSDEQLKSGTASVVCLLNNFYPREAKVQWKVDNALQSGNSQESVTEQDSKDSTYSLSSTLTLSKADYEKHKVYACEVTHQGLSSPVTKSFNRGEC
notes: as for B2
As for B3, the Kd with recombinant human BTN3A1 was found to be 0.101 nM; with recombinant human PD-L1, 0.053 nM. For the same molecule, the “MFI at 10 nM” value in assay [1] came to 1.14e+06 MFI; in assay [2] it was 1.1e+06 MFI. The “MFI at 100 nM” value in assay [1] is 1.3e+06 MFI; in assay [2] it was 1.67e+06 MFI.

B4: bsAb024 (bispecific antibody)
heavy: QVQLVQSGAEVKKPGASVKLSCKASGYIFTRYYMYWVKQRPGQGLEWIGEINPNNGGTKFNEKFKNRATLTVDKSISTAYMELSRLRSDDTAVYYCSREDDYDGTPFAMDYWGQGTLVTVSSGGGGSGGGGSGGGGSGGGGSDIQMTQSPSSLSASVGDRVTITCHASQNINVWLSWYQQKPGKAPKLLIYKASNLHTGVPSRFTGSGSGTDFTFTISSLQPEDIATYYCQQGQTYPYTFGQGTKLEIKGGGGSGGGGSGGGGSGGGGSEVQLVESGGGLVQPGGSLRLSCAASGFTFSRYWMSWVRQAPGKGLEWVANIKQDGSEKYYVDSVKGRFTISRDNAKNSLYLQMNSLRAEDTAVYYCAREGGWFGELAFDYWGQGTLVTVSSASTKGPSVFPLAPSSKSTSGGTAALGCLVKDYFPEPVTVSWNSGALTSGVHTFPAVLQSSGLYSLSSVVTVPSSSLGTQTYICNVNHKPSNTKVDKRVEPKSCDKTHTCPPCPAPEFEGGPSVFLFPPKPKDTLMISRTPEVTCVVVDVSHEDPEVKFNWYVDGVEVHNAKTKPREEQYNSTYRVVSVLTVLHQDWLNGKEYKCKVSNKALPASIEKTISKAKGQPREPQVYTLPPSREEMTKNQVSLTCLVKGFYPSDIAVEWESNGQPENNYKTTPPVLDSDGSFFLYSKLTVDKSRWQQGNVFSCSVMHEALHNHYTQKSLSLSPG
light: EIVLTQSPGTLSLSPGERATLSCRASQRVSSSYLAWYQQKPGQAPRLLIYDASSRATGIPDRFSGSGSGTDFTLTISRLEPEDFAVYYCQQYGSLPWTFGQGTKVEIKRTVAAPSVFIFPPSDEQLKSGTASVVCLLNNFYPREAKVQWKVDNALQSGNSQESVTEQDSKDSTYSLSSTLTLSKADYEKHKVYACEVTHQGLSSPVTKSFNRGEC
notes: as for B1
Consider B4, for which the figures for the Kd with recombinant human BTN3A1 and with recombinant human PD-L1 were 0.073 nM and 0.065 nM, respectively. The “MFI at 10 nM” value in assay [1] is 762000 MFI. The “MFI at 100 nM” value was 794000 MFI in assay [1] and 1.66e+06 MFI in assay [2].
